The target in assay [1] is T1, human DLL3 (ACRO, DLL3-H52H4) (human, UniProt Q9NYJ7 27-492).
T1 construct: Bought
T1 sequence: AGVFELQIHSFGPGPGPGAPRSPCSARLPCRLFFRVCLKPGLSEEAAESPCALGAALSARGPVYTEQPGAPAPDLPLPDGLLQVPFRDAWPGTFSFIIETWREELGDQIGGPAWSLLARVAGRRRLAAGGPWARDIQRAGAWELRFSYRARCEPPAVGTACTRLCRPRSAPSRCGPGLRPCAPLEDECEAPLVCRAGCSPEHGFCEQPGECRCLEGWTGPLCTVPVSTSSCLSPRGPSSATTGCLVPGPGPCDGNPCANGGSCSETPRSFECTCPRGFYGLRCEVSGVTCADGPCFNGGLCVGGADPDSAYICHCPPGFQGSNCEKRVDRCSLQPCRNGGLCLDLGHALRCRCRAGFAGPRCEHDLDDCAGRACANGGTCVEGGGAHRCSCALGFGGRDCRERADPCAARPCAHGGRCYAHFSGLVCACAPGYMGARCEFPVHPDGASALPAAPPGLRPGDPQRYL
The assay is described as follows: SPR Biacore 8K, Ab captured on Protein A. The gist of the method:
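Antibodies captured on a Protein A chip for 18 s; DLL3 or CD3D&3E antigen flowed 180 s, then 600 s dissociation, with real-time detection. Regeneration used 10 mM glycine-HCl pH 1.5 between cycles. Kinetics were obtained by 1:1 model fitting.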
(In general: SPR reads the build-up and loss of mass on a sensor chip optically.)

Assay [2] concerns the target T2, human DLL3 on cells (human, UniProt Q9NYJ7 27-618).
T2 construct: Endogenous on H1184 and SHP77; Cell line is named under assay; also called H1184; DLL3/H82
T2 sequence: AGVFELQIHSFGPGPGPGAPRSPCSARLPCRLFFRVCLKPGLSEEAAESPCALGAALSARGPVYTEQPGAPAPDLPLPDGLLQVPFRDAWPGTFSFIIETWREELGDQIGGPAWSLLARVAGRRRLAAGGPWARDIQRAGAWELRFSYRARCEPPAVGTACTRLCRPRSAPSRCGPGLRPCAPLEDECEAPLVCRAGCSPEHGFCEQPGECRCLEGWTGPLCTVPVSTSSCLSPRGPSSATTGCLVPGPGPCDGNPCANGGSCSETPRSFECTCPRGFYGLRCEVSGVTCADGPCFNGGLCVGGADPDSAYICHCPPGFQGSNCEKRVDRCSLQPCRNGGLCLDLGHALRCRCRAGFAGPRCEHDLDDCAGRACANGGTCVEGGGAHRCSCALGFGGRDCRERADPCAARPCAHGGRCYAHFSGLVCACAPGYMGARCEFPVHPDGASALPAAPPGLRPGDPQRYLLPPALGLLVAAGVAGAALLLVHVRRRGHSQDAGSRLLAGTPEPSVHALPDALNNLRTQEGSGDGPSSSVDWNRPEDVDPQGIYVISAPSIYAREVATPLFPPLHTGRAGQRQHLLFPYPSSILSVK
The assay is described as follows: flow cytometry, DLL3/H82 cells. The arrangement: key to Emax: geometric mean fluorescence intensity (flow cytometry). The procedure: (§1) The plates were centrifuged at 300 g for 5 min, and the supernatant was removed. Different concentrations of test antibodies were added at 100 μL/well. The plates were incubated in the dark in a refrigerator at 4° C. for 1 h. After 3 centrifugal washes at 300 g, working concentrations of APC anti-human IgG Fc (BioLegend, 410712) or PE F(ab′)2-goat anti-human IgG (invitrogen, H10104) were added. The plates were incubated in the dark in a refrigerator at 4° C. for 40 min. After 3 centrifugal washes at 300 g, the geometric mean fluorescence intensity was measured on an Invitrogen flow cytometer, and the EC50 values for the binding of the antibodies to DLL3-expressing cells were calculated.
For orientation: In flow cytometry, cells or beads pass a laser one at a time.

Assay [3] concerns the target T2, human DLL3 on cells. The assay is described as follows: flow cytometry, SHP77 cells. As to the method: as §1
The next assay concerns the target hIL5 (human, UniProt P05113 20-134). The assay is described as follows: ELISA. (An ELISA detects its analyte on a solid surface through an enzyme-linked reagent.)
The target of another assay is hTSLP (human, UniProt Q969D9 29-159). The assay is described as follows: ELISA.

As usually defined, the Kd is the concentration at which binding is half-saturated. As a reminder, the koff is the rate constant with which the complex falls apart. For orientation: kon means the rate constant with which the complex forms. What is called EC50 is the concentration needed to bring the measured effect to its halfway point.

B1: hu30L1H5 (antibody, human IgG1, kappa, V domains shown)
VH: EVRLVQSGAEVKKPGASVKVSCKASGYTFTDYYMNWVRQAPGQSLEWMGIINPYTGDTSYNQKFRGRVTLTVDKSASTAYMELSSLRSEDTAVYYCARYHYGPHLEGYFDVWGQGTTVTVSS
VL: DIVMTQSPDSLAVSLGERATINCKASENVGYVSWYQQKPGQPPKLLIYGASNRYTGVPDRFSGSGSGTDFTLTISSLQAEDVAVYYCGQSYSYPLTFGQGTKLEIKR
In assay [1], B1 returned a Kd of 0.952 nM, a koff of 0.00117 s⁻¹ and a kon of 1.23e+06 M⁻¹ s⁻¹. Moreover, in the assay with human DLL3 on cells [2], it took 0.88 nM to reach a half-maximal effect (EC50) and the Emax was determined as 6800. Further, in the assay with human DLL3 on cells [3], a half-maximal response (EC50) required 6.45 nM and the Emax was determined as 1540.

B2: HJ-3 (bispecific antibody)
chain 1: not shown
chain 2: DIQMTQSPSSVSASVGDRVTITCRASQDIANYLSWYQQKPGKSPKLLIYGTSNLEVGVPSRFSGSRSGTDFTLTISSLQPEDFATYYCLQDKEFPRTFGGGTKVEIKGGGGSSGAPRFLTRPLAFVVSVGKDATLSSQIVGNPTPQVSWEKDKQPVTAGARFRLAQDGDLYRLKILDLQLSDSGQYVSRARNAIGEAFACLGLQVDAEA
chain 3: EVQLVQSGAEVKKPGSSVKVSCKASGYTFSNYLIEWVRQAPGQGLEWIGVIDPGVGDTNYNENFKGRATLTADKSTSTAYIELSSLRSEDTAVYYCAREDNTGTAFDYWGQGTTVTVSSASTKGPSVFPLAPSSKSTSGGTAALGCLVKDYFPEPVTVSWNSGALTSGVHTFPAVLQSSGLYSLSSVVTVPSSSLGTQTYICNVNHKPSNTKVDKKVEPKSCDKTHTCPPCPAPEAAGGPSVFLFPPKPKDTLMISRTPEVTCVVVDVSHEDPEVKFNWYVDGVEVHNAKTKPREEQYNSTYRVVSVLTVLHQDWLNGKEYKCKVSNKALPAPIEKTISKAKGQPREPQVCTLPPSREEMTKNQVSLSCAVKGFYPSDIAVEWESNGQPENNYKTTPPVLDSDGSFFLVSKLTVDKSRWQQGNVFSCSVMHEALHNHYTQKSLSLSPGKDYKDDDDK
chain 4: SIVMTQTPLSLSVTPGQPASISCKASQSVSSDVTWYLQKPGQSPQLLIYYVSEHYTGVPDRFSGSGYGTDFTLKISRVEAEDVGVYYCQQHHRFPLTFGQGTKLEIKRTVAAPSVFIFPPSDEQLKSGTASVVCLLNNFYPREAKVQWKVDNALQSGNSQESVTEQDSKDSTYSLSSTLTLSKADYEKHKVYACEVTHQGLSSPVTKSFNRGEC
On to B2, for which the figures for the EC50 in the assay with hIL5 and with hTSLP were 17.4 nM and 3.23 nM, respectively.

B3: HJ-6 (bispecific antibody)
chain 1: not shown
chain 2: DIQMTQSPSSVSASVGDRVTITCRASQDIANYLSWYQQKPGKSPKLLIYGTSNLEVGVPSRFSGSRSGTDFTLTISSLQPEDFATYYCLQDKEFPRTFGGGTKVEIKGGGGSSGAPRFLTCPKASVVSVGKDATLSSQIVGNPFPQVSWEKDKQPVTAGVRFRLAQDGDLYRLKILDLQLSDSGQYVSRARNAHGEAFACLGLQVDAEA
chain 3: EVQLVQSGAEVKKPGSSVKVSCKASGYTFSNYLIEWVRQAPGQGLEWIGVIDPGVGDTNYNENFKGRATLTADKSTSTAYIELSSLRSEDTAVYYCAREDNTGTAFDYWGQGTTVTVSSASTKGPSVFPLAPSSKSTSGGTAALGCLVKDYFPEPVTVSWNSGALTSGVHTFPAVLQSSGLYSLSSVVTVPSSSLGTQTYICNVNHKPSNTKVDKKVEPKSCDKTHTCPPCPAPEAAGGPSVFLFPPKPKDTLMISRTPEVTCVVVDVSHEDPEVKFNWYVDGVEVHNAKTKPREEQYNSTYRVVSVLTVLHQDWLNGKEYKCKVSNKALPAPIEKTISKAKGQPREPQVCTLPPSREEMTKNQVSLSCAVKGFYPSDIAVEWESNGQPENNYKTTPPVLDSDGSFFLVSKLTVDKSRWQQGNVFSCSVMHEALHNHYTQKSLSLSPGK
chain 4: SIVMTQTPLSLSVTPGQPASISCKASQSVSSDVTWYLQKPGQSPQLLIYYVSEHYTGVPDRFSGSGYGTDFTLKISRVEAEDVGVYYCQQHHRFPLTFGQGTKLEIKRTVAAPSVFIFPPSDEQLKSGTASVVCLLNNFYPREAKVQWKVDNALQSGNSQESVTEQDSKDSTYSLSSTLTLSKADYEKHKVYACEVTHQGLSSPVTKSFNRGEC
For the molecule B3, the EC50 in the assay with hIL5 was found to be 37 nM; in the assay with hTSLP it was 2.88 nM.

B4: HJ-5 (bispecific antibody)
chain 1: not shown
chain 2: DIQMTQSPSSVSASVGDRVTITCRASQDIANYLSWYQQKPGKSPKLLIYGTSNLEVGVPSRFSGSRSGTDFTLTISSLQPEDFATYYCLQDKEFPRTFGGGTKVEIKGGGGSSGAPRFLTRPKASVVSVGKDATLSSQIVGNPFPQVSWEKDKQPVTAGVRFRLAQDGDLYRLKILDLQLSDSGQYVSRARNAHGEAFACLGLQVDAEA
chain 3: EVQLVQSGAEVKKPGSSVKVSCKASGYTFSNYLIEWVRQAPGQGLEWIGVIDPGVGDTNYNENFKGRATLTADKSTSTAYIELSSLRSEDTAVYYCAREDNTGTAFDYWGQGTTVTVSSASTKGPSVFPLAPSSKSTSGGTAALGCLVKDYFPEPVTVSWNSGALTSGVHTFPAVLQSSGLYSLSSVVTVPSSSLGTQTYICNVNHKPSNTKVDKKVEPKSCDKTHTCPPCPAPEAAGGPSVFLFPPKPKDTLMISRTPEVTCVVVDVSHEDPEVKFNWYVDGVEVHNAKTKPREEQYNSTYRVVSVLTVLHQDWLNGKEYKCKVSNKALPAPIEKTISKAKGQPREPQVCTLPPSREEMTKNQVSLSCAVKGFYPSDIAVEWESNGQPENNYKTTPPVLDSDGSFFLVSKLTVDKSRWQQGNVFSCSVMHEALHNHYTQKSLSLSPGK
chain 4: SIVMTQTPLSLSVTPGQPASISCKASQSVSSDVTWYLQKPGQSPQLLIYYVSEHYTGVPDRFSGSGYGTDFTLKISRVEAEDVGVYYCQQHHRFPLTFGQGTKLEIKRTVAAPSVFIFPPSDEQLKSGTASVVCLLNNFYPREAKVQWKVDNALQSGNSQESVTEQDSKDSTYSLSSTLTLSKADYEKHKVYACEVTHQGLSSPVTKSFNRGEC
As for B4, the 50% effective concentration (EC50) is 16 nM with hIL5 and 2.64 nM in the assay with hTSLP.

B5: HJ-7 (bispecific antibody)
chain 1: not shown
chain 2: DIQMTQSPSSVSASVGDRVTITCRASQDIANYLSWYQQKPGKSPKLLIYGTSNLEVGVPSRFSGSRSGTDFTLTISSLQPEDFATYYCLQDKEFPRTFGGGTKVEIKGGGGSSGAPRFLTRPKASVVSVGKDATLSCQIVGNPFPQVSWEKDKQPVTAGVRFRLAQDGDLYRLKILDLQLSDSGQYVCRARNAHGEAFACLGLQVDAEA
chain 3: EVQLVQSGAEVKKPGSSVKVSCKASGYTFSNYLIEWVRQAPGQGLEWIGVIDPGVGDTNYNENFKGRATLTADKSTSTAYIELSSLRSEDTAVYYCAREDNTGTAFDYWGQGTTVTVSSASTKGPSVFPLAPSSKSTSGGTAALGCLVKDYFPEPVTVSWNSGALTSGVHTFPAVLQSSGLYSLSSVVTVPSSSLGTQTYICNVNHKPSNTKVDKKVEPKSCDKTHTCPPCPAPEAAGGPSVFLFPPKPKDTLMISRTPEVTCVVVDVSHEDPEVKFNWYVDGVEVHNAKTKPREEQYNSTYRVVSVLTVLHQDWLNGKEYKCKVSNKALPAPIEKTISKAKGQPREPQVCTLPPSREEMTKNQVSLSCAVKGFYPSDIAVEWESNGQPENNYKTTPPVLDSDGSFFLVSKLTVDKSRWQQGNVFSCSVMHEALHNHYTQKSLSLSPGK
chain 4: SIVMTQTPLSLSVTPGQPASISCKASQSVSSDVTWYLQKPGQSPQLLIYYVSEHYTGVPDRFSGSGYGTDFTLKISRVEAEDVGVYYCQQHHRFPLTFGQGTKLEIKRTVAAPSVFIFPPSDEQLKSGTASVVCLLNNFYPREAKVQWKVDNALQSGNSQESVTEQDSKDSTYSLSSTLTLSKADYEKHKVYACEVTHQGLSSPVTKSFNRGEC
As to B5, the EC50 was 17.7 nM with hIL5 and 2.18 nM with hTSLP.

Values taken from patent US20250376519A1 (JIANGSU HENGRUI PHARMACEUTICALS, published 2025).
